{"source": "paper PMC10715591", "about": "“EspB and HtpG interact with the type III-A CRISPR/Cas system of Mycobacterium tuberculosis” (Frontiers in Molecular Biosciences, 2023)", "binders": {"B1": {"name": "MtbCsm3 (natural protein)", "chain": "MTTSYAKIEITGTLTVLTGLQIGAGDGFSAIGAVDKPVVRDPLSRLPMIPGTSLKGKVRTLLSRQYGADTETFYRKPNEDHAHIRRLFGDTEEYMTGRLVFRDTKLTNKDDLEARGAKTLTEVKFENAINRVTAKANLRQMERVIPGSEFAFSLVYEVSFGTPGEEQKASLPSSDEIIEDFNAIARGLKLLELDYLGGSGTRGYGQVKFSNLKARAAVGALDGSLLEKLNHELAAV"}, "B2": {"name": "MtbCsm2 (natural protein)", "chain": "MSVIQDDYVKQAEVIRGLPKKKNGFELTTTQLRVLLSLTAQLFDEAQQSANPTLPRQLKEKVQYLRVRFVYQSGREDAVKTFVRNAKLLEALEGIGDSRDGLLRFCRYMEALAAYKKYLDPKDK"}, "B3": {"name": "MtbCsm6 (natural protein)", "chain": "MILFSPIGTADPITALGDGPMLHIVRHYRPIVVVLFLSAEIAAFENADRRYSAAITRLAPETDVRIVTYTNPSVHRFDLFVPVFRNHLVELSAEFPDRTILLNTSSGTPAMQAALVAINVFGIPRTTAVQVSTPARALSKPGDRESPDAYDLELMWDANDDNQPGAPNRCFEATSAALGALLERANLKQLIVSYDYSAAVTIAADSRLPDQVSNLIRGAMHRSRLEHLVAPKFFKDTAFTYDPANKVAEYISALALLAKREQWAEFARSATPAITIVLRAAVAKHLPEDRYLDDMGRVDRRKLEREPEIRCALKHPPKSPNAEWYLYTKDWLALLRQFAPDRVGALEVLGRFESRVRNTAAHEIVSISEDRITKDGGLLPEQLLKILARETGADLTLYDRLNDEIIRQIDMAPLG"}}}
{"target": "T1, ESX-1 secretion-associated protein EspB (Mycobacterium tuberculosis H37Rv, UniProt P9WJD9 1-460)", "T1 construct": "also called Esx-1 secreted protein B", "T1 sequence (P9WJD9 whole entry)": "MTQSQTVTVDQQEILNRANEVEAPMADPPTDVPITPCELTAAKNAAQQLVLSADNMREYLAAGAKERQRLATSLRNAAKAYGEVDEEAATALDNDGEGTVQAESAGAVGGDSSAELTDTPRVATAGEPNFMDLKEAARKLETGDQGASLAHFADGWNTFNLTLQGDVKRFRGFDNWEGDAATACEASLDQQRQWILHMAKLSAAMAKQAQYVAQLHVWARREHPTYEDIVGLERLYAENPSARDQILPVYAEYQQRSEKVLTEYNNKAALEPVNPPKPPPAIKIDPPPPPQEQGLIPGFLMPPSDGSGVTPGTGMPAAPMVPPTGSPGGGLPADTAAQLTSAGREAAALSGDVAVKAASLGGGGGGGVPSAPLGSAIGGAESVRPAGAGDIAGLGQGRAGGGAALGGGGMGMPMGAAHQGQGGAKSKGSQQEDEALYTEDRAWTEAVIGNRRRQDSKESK", "test": "SPR; Biacore 8K, 25°C; EspB covalently immobilised on a CM5 chip; analytes injected at 25-3,200 nM, 30 uL/min for 2 min; global fit to a 1:1 mass transport model", "conditions": "both partners purified", "units": {"Kd": "nM", "koff": "s⁻¹", "kon": "M⁻¹ s⁻¹"}}
{"binder": "B1", "Kd": 1.9, "koff": 0.000462, "kon": 243000}
{"binder": "B2", "Kd": 0.125, "koff": "8.3e-07", "kon": 6660}
{"binder": "B3", "Kd": 0.0316, "koff": "5.83e-07", "kon": 18400}
